Reference: patent publication US20150098945A1 (Daiichi Sankyo, published 2015)

Assays:
[1] = molecular target: T1, N-terminal FLAG-tagged cynomolgus monkey ROBO4, cynoROBO4-2 (pCI-FLAG-cynoROBO4-2) (cynomolgus monkey, UniProt Q8WZ75 28-1007 (human entry)); experiment: flow cytometry, HEK293 cells transfected with pCI-FLAG-cynoROBO4-2, antibody at 10 µg/mL, anti-mouse IgG FITC; control histogram IgG (Mouse IgG2a)
T1 chain: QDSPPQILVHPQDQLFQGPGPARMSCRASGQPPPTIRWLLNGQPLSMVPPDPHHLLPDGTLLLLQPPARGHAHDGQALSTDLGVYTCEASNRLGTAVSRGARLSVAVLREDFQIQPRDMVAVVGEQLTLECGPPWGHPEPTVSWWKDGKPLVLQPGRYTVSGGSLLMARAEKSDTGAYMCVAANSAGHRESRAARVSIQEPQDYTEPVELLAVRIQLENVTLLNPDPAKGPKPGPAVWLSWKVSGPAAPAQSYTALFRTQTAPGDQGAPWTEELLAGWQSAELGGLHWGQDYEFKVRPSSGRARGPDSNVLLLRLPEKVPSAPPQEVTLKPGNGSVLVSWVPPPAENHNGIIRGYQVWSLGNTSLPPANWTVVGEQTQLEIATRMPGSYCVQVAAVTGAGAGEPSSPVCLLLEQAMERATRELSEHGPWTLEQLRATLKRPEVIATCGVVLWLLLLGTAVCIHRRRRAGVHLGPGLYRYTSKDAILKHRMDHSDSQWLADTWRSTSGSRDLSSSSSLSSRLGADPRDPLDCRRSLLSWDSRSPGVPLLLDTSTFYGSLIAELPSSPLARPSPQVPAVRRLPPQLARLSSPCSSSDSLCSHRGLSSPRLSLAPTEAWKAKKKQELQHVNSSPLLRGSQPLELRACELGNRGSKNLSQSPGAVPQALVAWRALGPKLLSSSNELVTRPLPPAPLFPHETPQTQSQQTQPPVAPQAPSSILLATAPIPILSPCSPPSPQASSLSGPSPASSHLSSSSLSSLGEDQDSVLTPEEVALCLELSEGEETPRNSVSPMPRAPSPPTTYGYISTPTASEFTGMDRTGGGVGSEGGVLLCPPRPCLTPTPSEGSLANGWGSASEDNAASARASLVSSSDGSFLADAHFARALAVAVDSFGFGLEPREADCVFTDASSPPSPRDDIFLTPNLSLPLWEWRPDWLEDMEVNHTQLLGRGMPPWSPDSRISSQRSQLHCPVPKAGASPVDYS
Method: HEK293 cells were inoculated at a concentration of 1.5×10⁶ cells/dish to a 60-mm dish (manufactured by Corning Inc.) and cultured overnight in a DMEM medium containing 10% FBS at 37° C. under 5% CO₂ conditions. On the next day, the HEK293 cells were transfected with pCI-hROBO4, pCI-mROBO4, pCI-raROBO4, pCI-FLAG-cynoROBO4-1, pCI-FLAG-cynoROBO4-2, pCI-hROBO1, pCI-hROBO2, or pCI-hROBO3 using FuGENE6 Transfection Reagent and further cultured overnight at 37° C. under 5% CO₂ conditions. On the next day, the expression vector-transfected cells were treated with TrypLE Express (manufactured by Life Technologies Corp.), washed with PBS containing 5% FBS, and then suspended in PBS containing 5% FBS. The obtained cell suspension was used in flow cytometry analysis.
Each cell suspension prepared in 4)-3-1 was centrifuged, and the supernatant was removed. Then, MAb1 or a negative control Mouse IgG2a was added at a concentration of 10 μg/mL to 2×10⁵ expression vector-transfected cells, and the resulting suspension was left standing at 4° C. for 1 hour. […] Data was analyzed using Flowjo. The histogram of FITC fluorescence intensity was prepared. The antibody was determined to bind in a cross-species manner when the histogram of MAb1 was shifted to a stronger fluorescence intensity region compared with the histogram of the negative control Mouse IgG2a.

[2] = molecular target: T1, N-terminal FLAG-tagged cynomolgus …; experiment: flow cytometry (FC500), HEK293 cells transfected with pCI-FLAG-cynoROBO4-2, antibody at 10 µg/mL, FITC goat anti-human IgG Fc; control histogram IgG (human IgG)

B1: anti-ROBO4 mouse monoclonal antibody MAb1 (antibody, mouse IgG1, V domains shown)
VH: EVQLVESGGGLVKPGGSLKLSCAASGFTFSTYAMSWVRQTPEKRLEWVATISNGGTYTYYPDSVKGRFTISRDNAENTLYLQMSSLRSEDTAMYFCARLIYYDYLDYWGHGTTLTVSS
VL: DAVMTQTPLSLPVSLGDQASISCRSSQSLENSNGNTYLNWYFQKPGQSPQLLIYRVSNRFSGVLDRFSGSGSGTDFTLKISRVEAEDFGVYFCLQVTHVPWTFGGGTKLEIKR
notes: Mouse IgG1 (gamma1), kappa light chain, purified from hybridoma supernatant; also called parent antibody MAb1
Question: Does B1 bind [1]?
Answer: Result: binds

B2: humanized MAb1 antibody H-2143 (antibody, human IgG2, kappa, V domains shown)
VH: EVQLVESGGGLVQPGGSLRLSCAASGFTFSTYAMSWVRQAPGKRLEWVATISQGGTYTYYPDSVKGRFTISRDNAKNTLYLQMNSLRAEDTAVYYCARLIYYDYLDYWGQGTLVTVSS
VL: DIVMTQSPLSLPVTLGEPASISCRSSQSLENENKNLYLNWYLQKPGQSPQLLIYRVSNRFSGVPDRFSGSGSGTDFTLKISRVEAEDVGVYYCLQVTHVPWTFGPGTKVDIKR
notes: Human IgG2 / kappa constant regions; also called hMAb1-H4-type heavy chain + hMAb1-L2-type light chain
Question: Does B2 bind [2]?
Answer: Result: binds
